B1: antibody A (antibody, V domains shown)
VH: EVHLVESGGALVKPGGSLKLSCAASGFSFSKYGMSWVRQTPDKRLEWVATISSSGSRTYYPDSVKGQFTISRDNAKNTLYLQMSSLKSEDTAMYYCSISWDGAMDYWGQGTSVTVSS
VL: DVLMTQTPLSLPVSLGDQASISCKSSQSIVHSNGNTYLEWYLQKPGQSPKLLVYKVSNRFSGVPDRFSGSGSGTDFTLKISRVEAEDLGTYYCFQGSLVPWAFGGGTKLEIK
notes: heavy chain V-region; mouse gamma-1 IgG heavy chain constant region (from the expression vector); light chain V-region; mouse kappa light chain constant region (from the expression vector); source: CHOSXE cell line, electroporated, purified (Protein A, gel filtration); copies: 2 + 2
B2: antibody B (antibody, V domains shown)
VH: EVKVEESGGGLVQPGGSMKLSCVVSGFTFSNYWVNWVRQSPEKGLEWVAQIRLKSDNYATHYEESVKGRFTISRDDSKSSVYLQMNNLRAEDSGIYYCTNWEDYWGQGTTLTVSS
VL: DIVLTQSPASLAVSLGQRATISCRASQSVSTSRYSYIHWYQQKPGQPPKLLIKYASNLESGVPARFSGSGSGTDFTLNIHPLEEEDAATYYCHHSWEIPLTFGAGTKLELK
notes: as for B1
B3: antibody F (antibody, V domains shown)
VH: EVQLVQSGAEVKKPGESLKISCKGSGYTFSNYWIEWVRQMPGKGLEWMGEILPGSDSIKYEKNFKGQVTISADKSISTAYLQWSSLKASDTAMYYCARRGNYVDDWGQGTLVTVSS
VL: EIVLTQSPGTLSLSPGERATLSCRSSQSLVHSNQNTYLHWYQQKPGQAPRLLIYKVDNRFSGIPDRFSGSGSGTDFTLTISRLEPEDFAVYYCSQSTLVPLTFGGGTKVEIK
notes: as for B1

Target: T1, monomeric recombinant Tau (2N4R) (Homo sapiens (Human)., UniProt P10636-8)
T1 construct: Tau (microtubule-associated protein Tau), isoform 2N4R, 441 amino acids; gene synthesized by DNA2.0; also called Tau monomer; monomeric Tau; source: Expi293 expression system, purified from culture medium (Ni Sepharose Excel, TEV cleavage, second Ni Sepharose Excel); not shown: 10His-TEV, N-terminal, cleaved
T1 sequence (P10636 other isoform, or with tags, fused parts or gaps): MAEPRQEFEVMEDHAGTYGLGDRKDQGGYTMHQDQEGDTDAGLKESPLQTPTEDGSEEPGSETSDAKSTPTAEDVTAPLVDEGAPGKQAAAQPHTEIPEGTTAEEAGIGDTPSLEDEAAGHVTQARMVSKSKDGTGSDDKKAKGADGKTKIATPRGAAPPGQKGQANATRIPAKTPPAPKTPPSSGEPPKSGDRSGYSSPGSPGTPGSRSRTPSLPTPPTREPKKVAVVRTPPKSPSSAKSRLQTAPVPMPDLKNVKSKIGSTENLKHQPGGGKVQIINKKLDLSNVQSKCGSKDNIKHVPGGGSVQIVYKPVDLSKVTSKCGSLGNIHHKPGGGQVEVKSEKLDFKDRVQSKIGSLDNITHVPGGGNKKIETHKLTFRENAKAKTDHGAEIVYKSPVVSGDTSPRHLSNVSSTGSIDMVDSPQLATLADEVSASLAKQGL
Assay: SPR; monomeric recombinant Tau and full-length IgG; BIAcore T200, 25 °C; extrinsic affinity; who was immobilised is not told for the monomer
Conditions: both partners purified

Kd [nM]	koff [s⁻¹]	kon [M⁻¹ s⁻¹]	Binder
0.16	5.2e-05	360000	B1
20.7	0.000953	50000	B2
117	0.0205	180000	B3

Source: article PMC6208734, “Epitope determines efficacy of therapeutic anti-Tau antibodies in a functional assay with human Alzheimer Tau” (Acta Neuropathologica, 2018)
